Experimental data published in the DeepSol protein solubility set.

experiment: soluble on expression in E. coli; label from the status in PepcDB or PDB records

Soluble on expression in E. coli, soluble:
MITSPFERELKLLNEGELGIVQQLVESSNIGFIVDLELDGDYGWAVYKPELGEQPLWDFPPGLYKRERAAFVISEFLGWNIVPPTVIMHDAPAGVGSVQWFIENNGEHYFPLFDTRADLHPQFVRMAVFDLLCNNTDRKAGHVLLDGDHIWGIDHGLCFSVEPKLRTVIWDFAGCTIPDDLVTDVEQLLEDVPEELHQLLHPAEIDALQRRASRISRLPFLPQAKSHRQFPWPLVLEHHHHHH
MIVIPMAGMSSRFFKAGYTQPKYMLEAHGQTLFEHSVNSFAAYFASTPFLFIVRNVYDTAVFVREKATQLGIKQFYIAELHTETRGQAETVTLGLEELAKQGVDYQGSITVFNIDTFRPNFVFPDISQHSDGYLEVFQGGGDNWSFAKPEHAGSTKVIQTAEKNPISDLCSTGLYHFNRKEDYLEAYREYVARPSQEWERGELYIAPLYNLLIQKGLNIHYHLIARHEVIFCGVPDEYTDFLRQPQPLEHHHHHH
MIYDVFLNFSGEDVRGTFLNHFFKELERKSIIAFKDNESERSQNLSPELTHAIRESRITVVVFSKNYSSSTWCLNELLQVYECYQSMDLPVIPIFYGLDPSHVRKQTGEFGKNFEKTCRNETEACVYQWRRALCDVSNFLGYHSPNWANEATMIEQVANDVLFKLNLTPSSDFSEFVGIEDHIAAMNSVDKR
MKAFILAAGSGERLEPITHTRPKAFVPILSKPLIEYQIEYLRKCGIRDITVIVSSKNKEYFEKKLKEISIVTQKDDIKGTGAAILSAKFNDEALIIYGDLFFSNEKEICNIITLKENAIIGVKVSNPKDYGVLVLDNQNNLSKIIEKPEIPPSNLINAGIYKLNSDIFTYLDKISISERGELELTDAINLMAKDHRVKVIEYEGYWMDIGKPWNIIDVNKWALDNLVFSQNLGNVEDNVKIKGKVIIEEDAEIKSGTYIEGPVYIGKGSEIGPNSYLRPYTILVEKNKIGASVEVKESVIMEGSKIPHLSYVGDSVIAEDVNFGAGTLIANLRFDEKEVKVNVKGKRISSGRRKLGAFIGGHVRTGINVTILPGVKIGAYARIYPGAVVNRDVGYGEFFKV
MKAVVQRVTRASVTVGGEQISAIGRGICVLLGISLEDTQKELEHMVRKILNLRVFEDESGKHWSKSVMDKQYEILCVSQFTLQCVLKGNKPDFHLAMPTEQAEGFYNSFLEQLRKTYRPELIKDGKFGAYMQVHIQNDGPVTIELESPAPGTATSDPKQLSKLEKQQQRKEKTRAKGPSESSKERNTPRKEDRSASSGAEGDVSSEREP
MKDFWTWERLSFHMVLAYNDDRSFLINTGMPLDLTLRNQEMKKFAGDRAIFRSEDSIEMLRKAGFTPDDIDYVALTPVQDYTIGRLNEFRKSKIFIFRDGWIKDIAAPAYAYFHNRDLFIPKNIFDFVYGEGWKNIIFYDGETELVPGIRAIPVGCHHRSSVAFAINAKDGTYVFTDASFKAENVRNRIPIGIAENIYECLSAYEKIEKIGKLLPAYDPAIDDLYIKLEHHHHHH
MKDNEQKAGSVADQKNKIRERYKGVSIDELDVIPALPQEDIFAVENEQRVAVYARVSTDDPRQTSSYELQKNHYHDVISKSPNWKLVQIYADEGISGTSLQHRDQFKLMIEDCKKGEIDLIVTKSVSRFARNVVDCIGYVRELLALPHPVGVFFETERLNTFDPKSEMVLSFMATLAQEESHTKSEIMNASIEMRFRRGIFLTPTLLGYDHDEDGNLVVNEGEAKIVRLIFMMYLNGCTCQEIADTMTELGCETKKGNTVWSPGSILQILQNERHCGDVLARKTYTPNYLNHKSKKNMQNRPQYRKRNHHEAIISRDDFIAVQRLISNAKYGNKGILPELKVISNGVLKGFVSINPRWAGFKENDYISASLSVYDQMEQLSPSASSVEVQSGDFDLRGYEIARSQFFDGTDRITVTFSLNDIKFSTAAVRKLNSTLVELLLHPNKHLFAVRTASQAHRNAMQWAKKRGELSVPRAVSGTAFMPTVYALLGWNTDCRYRITGIRRGNGNDAVLLFNLEETEIFIPSDVIDEQQTSDARTDVKPLEHHHHHH

Soluble on expression in E. coli, not soluble:
MITQVNQLDELQLKDLKTLRAECKKNDGSIPNLYIHILKQHRSLPTSFLYYQNGALIGFLSIYFFYDDAVEVAVLVSPQYRRQGIAKQLIKEALPLIKSQNYFNLIFSCPSRLNDNWLTSKGFTYLHSEYFMERDDLNPILDYIRPLSFRMATLEDIPILCGLDEVCFPDKNQDSVHRFQQILNEREYEIVIAMLNNHPIGKSHIRWQTKRATLSDIAILPKEQGKGFGSALIAHCINMILSEGKSRVDLDVETHNKKALNLYIQLGFHIQNACDYWSINVNQLAK
MITTRLHGRLGNQMFQYAAARGLAARLGTQVALDTRLAESRGEGVLTRVFDLDLAQPDQLPPLKGDGLLRHGAWRLLGLAPRFRREHGLGYNAAIETWDDGTYLHGYWQSERYFAHIAARIRADFAFPAFSNSQNAEMAARIGDTDAISLHVRRGDYVALAAHTLCDQRYYAAALTRLLEGVAGDPVVYLFSDDPAWARDNLALPVQKVVVDFNGPETDFEDMRLMSLCRHNIIGNSSFSWWAAWLNAHPGKRIAAPASWFGDAKLHNPDLLPPDWLKIEVLEHHHHHH
MIVDMRLRPPIPGFARSTLYQAGPKTSHPDFPVEPSVGQCSLPLLISEMDAAGVAVGVVPGRYSMEPFGIVSNDELATLFADHPGRFVGFMGLDLGWPMQRMLDEIDARVGTPGFRGVALEPTISADASFCGMNDKRLYPIYEACVKHGVPVSVTLSAVLQAFTKRPYEHSNPVQAYQVAIDFPGLDIVIAHAAYPWVMEMIGVCLTCPNVWLSPDLYLTNVFPGAQEYAKAAATYLPRRTLFGTGYPAKPFKPMIDAYAAWGWPQDVVAAILGGNAARLLRLADQLEHHHHHH
MIVHELTDIGHLFTEQLQEGYYVIRETYQNVLVEPEDGDTVRQVDAGTEEVVTIVFDPGDEYSLICLDTYTFADGIPSLAELKETIAAEYDVFVNDRWAAPSL
MIVNEINSSEEVLQIEQIDVEGQRAEYNRIQQERQDYQYAMRFAVHVDQVAVQALPIPAQSPEHLVAEHSNAQVPVDARPNPPTQSPAPRAAPDHGPVQAPRNLAQALNLPRRARGRPRRSDVRRTRDAQDSVATQQGPNAEQSGILVPPASRQQPEHSATSTISAPLSPASSTNMALQNAPSDHGDQLIRDSSEDRQNVPAPRRSARIASHTQYRTSPYVSARQGHRLAIARGRAAPGTLDPSASRQSIPSTSDAPVLVPHAPPAPPSPTLQDCVICMEEPVNPKVCPKCLKMIGCAKCFRWWTVFRCWWQSSLNPSCPLCRLKWDSAPKVIAAKKFYDGK
MIVRSYLYEKLNGDVRCKTCWHRCIIKEGKTGICRVRKNEGGELLVLNYGMASSIALDPIEKKPLNNFKPGSKVLSFGSVSCNFRCLHCQNFEIAFADLDYSYLREIDPDTVLRMCIDRRADGVAWTYNEPAIWHEFALDSSKLVKESGYYVVYVTNGYMTPEAVDQFEGVLDAANVDVKAFSEDFYKKICKAKLEHVLETVEYLHRKGVFVELTYLIIPGENDSREELRDFCRWVADLSPKIPVHFSRFHPDYKMLDKPPTPVEKIEEAVEIAKKEGIEYVYAGNVWGHRYENTYCPNCGELLIEREGFYVYNINLVRDNPPKCPNCGYAQNIIL
MIYSMTAFAHLELKKEWGNAVWEMRSVNQRFLETYFRLPEQFRHLEMSLRERLRSALTRGKVECSLRIELTNSQDKELSLNKDYAEKVIGSLQTLQALAGGGQINLVDLLRYPGVVDSQTQDLDQIGQDLCAGFEEILADFIAMRAREGANLQQLIQQRLDSISKIATQVQAQMPAILQWQKEKLQQRFDELNLQLESQRLEQEIVLTAQRVDVAEELDRLQLHVKETMAILQRGGAVGRKLDFMMQELNRESNTLASKSINADVTNSAVELKVLIEQMREQIQNLE
MIYSVGNRLGNKLTGIEKAMINRHNLFKNHSITSKLIFASWSPRLHFNASLFQIEDDDILSLYDVLQDSINIKSIHKDWITHWTKECNYTLKFIENTNDIKIYEKSNYRMYVHFNDSNYQHLDYINHFDVNQRKIRRDLYDSRGFLSCSRTLTTNQKVVCEHYYTPEGTIKFQKFFNPELENSQSQLIIYNTDSQLKYFNNDQELLAFAIEKLYKNGDIFLSDKNINTAPIFNNTSETIPVLAVLHSTHVKNIDMVYESDIKNTYKHVFNNLNRYSGIIVSTKQQQLDISARINNEIPVHTIPVGYIDEHFTNLKRNNHSINNNKIISVARYSPEKQLNHQIELVSKLIKEFPNIQLHLYGFGKEEEKYKQLITEYNLENNVFLRGFRRNLSAEIQDAYMSLITSNMEGFNLGLLETITEGIPPVGYNSKYGPSELILNNENGYLINKNDKDELYNRVRNLLLDKTLRDTFSQECIKHSKAFSSKIVMKLWEDRFSTINSSYE
MKAIITKPMCVVGDNKSTVRFETSTPNNPFVEISNQVYARLKRANAAKPFVDVKTKIKPDKAVEQIKQIEKEPNQISSETVTEETSLEKPKASKASKPSTPTPKKA
MKALNREVIEYFKEHVNPGFLEYRKSVTAGGDYGAVEWQAGSLNTLVDTQGQEFIDCLGGFGIFNVGHRNPVVVSAVQNQLAKQPLHSQELLDPLRAMLAKTLAALTPGKLKYSFFCNSGTESVEAALKLAKAYQSPRGKFTFIATSGAFHGKSLGALSATAKSTFRKPFMPLLPGFRHVPFGNIEAMRTALNECKKTGDDVAAVILEPIQGEGGVILPPPGYLTAVRKLCDEFGALMILDEVQTGMGRTGKMFACEHENVQPDILCLAKALGGGVMPIGATIATEEVFSVLFDNPFLHTTTFGGNPLACAAALATINVLLEQNLPAQAEQKGDMLLDGFRQLAREYPDLVQEARGKGMLMAIEFVDNEIGYNFASEMFRQRVLVAGTLNNAKTIRIEPPLTLTIEQCELVIKAARKALAAMRVSVEEA
MKANQLDILIVPGYKGSDPDHWQTRWEKKLSTARRVQQTHWSKPICEEWVNEVKIAIAQSQKPIVIIAHSLGVPTTIHATLKNAEKVRGAFFVAPPDVSNEKIRPKHLMTFGPYHCKKLSFPSVVIASRNDEFCQFSVAEKLAGDWGALFVDAGLSGHINVESGHGPWPEGLMVFSHFLAKI
MKANSDELQSFVSVVDSGSISAAAEQMGLTASAVSRTLSRLEHKLGTTLLNRTTRRMELTEEGRYFLDQARQILQQMEALEERLALRRQSPAGRLRINAASPFMLHAVVPHIGEFRRLYPDIQLELNTNDLIIDLLEQRTDVAIRIGALSDSTLHARPLGASRLHILASPEYLARHGTPASIEGLRGHTLLGFTQPEHLNRWPVVHADGDRLEIQPDISASSGETLRQLALSHQGIACLASFMTDRDIQDGRLVPLFAEQMSEYRQPIHAVYYRNSQLALRIQCFLDFIQQRLGA
MKDFITEAWLRANHTLSEGAEIHLPADSRLTPSARELLESRHLRIKFIDEQGRLFVDDEQQQPQPVHGLTSSDEHPQACCELCRQPVAKKPDTLTHLSAEKMVAKSDPRLGFRAVLDSTIALAVWLQIELAEPLGCQAIVGLSDEDLHRLSHQPLRYLGHDHLVPEASHGRDAALLNLLRTKVREAETVAAQVFITRSFEVLRPDILQALNRLSSTVYVMMILSVTKQPLTVKQIQQRLGETQ
MKDILGKTFECSCGKTHEVPDIEILETSIREAPDVFSDAFFIADLNTASLVDLPGKRSFVFNERRPLATMENV
